Data from US20250152742A1, “COMPOSITIONS AND METHODS FOR NEUROLOGICAL DISEASES” (Trames Bio, Inc., priority 2022, published 2025).

System: engineered chimeric receptor SEQ ID NO: 33 and its mutants (human α7-nAChR ligand binding domain / human GlyRα1 ion pore domain) in Lenti-X 293T cells
Experiment: YFP fluorescence quenching anion reporter plate reader assay (percent quench, EC50)
Format: cell-based
Conditions: for YFP fluorescence quenching using CNL001 (percent quench): receptor named in row; for YFP fluorescence quenching using Varenicline, 3 nM var: ligand Varenicline 3 nM; for YFP fluorescence quenching using Varenicline, 30 nM var: ligand Varenicline 30 nM; for YFP fluorescence quenching using Varenicline, 300 nM var: ligand Varenicline 300 nM; for YFP fluorescence quenching using Varenicline, 500 nM var: ligand Varenicline 500 nM; for YFP fluorescence quenching using Varenicline, 1 uM var: ligand Varenicline 1 uM
Summary of the method: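 Lenti-X 293T cells co-expressing an anion-quenchable YFP were transiently transfected with receptor DNA, then ligand was added in NaI-substituted buffer (pH 7.2) after 30 min at 37 °C. Fluorescence was read about 2 min; percent quench = mean of last 10 s over 15 s pre-ligand baseline.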

B1: CODA335: engineered receptor: L131T in SEQ ID NO: 33 (protein)
chain: MRCSPGGVWLALAASLLHVSLQGEFQRKLYKELVKNYNPLERPVANDSQPLTVYFSLSLLQIMDVDEKNQVLTTNIWLQMSWTDHYLQWNVSEYPGVKTVRFPDGQIWKPDILLYNSADERFDATFHTNVTVNSSGHCQYLPPGIFKSSCPMDLKNFPMDVQTCKLKFGSWSYGGWSLDLQMQEADISGYIPNGEWDLVGIPGKRSERFYECCKEPYPDVTFTVTMRRRMGYYLIQMYIPSLLIVILSWISFWINMDAAPARVGLGITTVLTMTTQSSGSRASLPKVSYVKAIDIWMAVCLLFVFSALLEYAAVNFVSRQHKELLRFRRKRRHHKSPMLNLFQEDEAGEGRFNFSAYGMGPACLQAKDGISVKGANNSNTTNPPPAPSKSPEEMRKLFIQRAKKIDKISRIGFPMAFLIFNMFYWIIYKIVRREDVHNQ
modifications: synthetic sequence of chimeric LGIC
For B1, which “YFP fluorescence quenching using CNL001 (percent quench)” value (1 nM CNL001, first column so headed) is on record?
Its value is −9.942%.

And the “YFP fluorescence quenching using CNL001 (percent quench)” value (1 nM CNL001, second column so headed)?
Its value is −0.475%.

What about the “YFP fluorescence quenching using TC-5619/Bradanicline (percent quench)” value (1 nM brd (TC-5619/Bradanicline)) of the same molecule?
Its value is −2.39%.

And the “YFP fluorescence quenching using TC-5619/Bradanicline (percent quench)” value (3 nM brd (TC-5619/Bradanicline))?
The value was −4.08%.

And the “YFP fluorescence quenching using CNL001 (percent quench)” value (10 nM CNL001, first column so headed)?
The value was 17.889%.

And the “YFP fluorescence quenching using CNL001 (percent quench)” value (10 nM CNL001, second column so headed)?
The value was 38.46%.

And the “YFP fluorescence quenching using TC-5619/Bradanicline (percent quench)” value (10 nM brd (TC-5619/Bradanicline))?
Its value is −3.3%.

What about the “YFP fluorescence quenching using TC-6683 (percent quench)” value (30 nM TC-6683) of the same molecule?
Its value is −13.84%.

What about the “YFP fluorescence quenching using TC-5619/Bradanicline (percent quench)” value (30 nM brd (TC-5619/Bradanicline)) of the same molecule?
The value was −9.69%.

What about the “YFP fluorescence quenching using CNL001 (percent quench)” value (50 nM CNL001, first column so headed) of the same molecule?
Its value is 61.741%.

And the “YFP fluorescence quenching using CNL001 (percent quench)” value (50 nM CNL001, second column so headed)?
Its value is 69.159%.

And the “YFP fluorescence quenching using ABT-126 (percent quench)” value (50 nM abt (ABT-126))?
Its value is −18%.

What about the “YFP fluorescence quenching using CNL001 (percent quench)” value (100 nM CNL001, first column so headed) of the same molecule?
Its value is 73.635%.

And the “YFP fluorescence quenching using CNL001 (percent quench)” value (100 nM CNL001, second column so headed)?
Its value is 76.092%.

What about the “YFP fluorescence quenching (percent quench)” value (100 nM CNL002) of the same molecule?
Its value is −14.53%.

And the “YFP fluorescence quenching using ABT-126 (percent quench)” value (100 nM abt (ABT-126))?
The value was −16.39%.

What about the “YFP fluorescence quenching using AZD-0328 (percent quench)” value (100 nM azd0328) of the same molecule?
Its value is 11.33%.

And the “YFP fluorescence quenching using TC-5619/Bradanicline (percent quench)” value (100 nM brd (TC-5619/Bradanicline))?
Its value is −1.05%.

And the “YFP fluorescence quenching using TC-6683 (percent quench)” value (300 nM TC-6683)?
The value was −20.66%.

What about the “YFP fluorescence quenching using ABT-126 (percent quench)” value (300 nM abt (ABT-126)) of the same molecule?
The value was −15.05%.

And the “YFP fluorescence quenching using AZD-0328 (percent quench)” value (300 nM azd0328)?
Its value is 44.15%.

And the “YFP fluorescence quenching using TC-5619/Bradanicline (percent quench)” value (300 nM brd (TC-5619/Bradanicline))?
Its value is 10.53%.

And the “YFP fluorescence quenching using CNL001 (percent quench)” value (1 uM CNL001, first column so headed)?
The value was 80.633%.

What about the “YFP fluorescence quenching using CNL001 (percent quench)” value (1 uM CNL001, second column so headed) of the same molecule?
Its value is 79.637%.

And the “YFP fluorescence quenching (percent quench)” value (1 uM CNL002)?
The value was 6.45%.

And the “YFP fluorescence quenching using ABT-126 (percent quench)” value (1 uM abt (ABT-126))?
The value was −5.56%.

What about the “YFP fluorescence quenching using TC-5619/Bradanicline (percent quench)” value (1 uM brd (TC-5619/Bradanicline)) of the same molecule?
Its value is 34.72%.

And the “YFP fluorescence quenching using TC-6683 (percent quench)” value (3 uM TC-6683)?
Its value is −17.86%.

And the “YFP fluorescence quenching (percent quench)” value (10 uM ach (acetylcholine))?
The value was −9.13%.

What about the “YFP fluorescence quenching (percent quench)” value (30 uM CNL002) of the same molecule?
The value was 57.43%.

What about the “YFP fluorescence quenching using TC-6683 (percent quench)” value (30 uM TC-6683) of the same molecule?
Its value is −18.91%.

What about the “YFP fluorescence quenching using AZD-0328 (percent quench)” value (30 uM azd0328) of the same molecule?
The value was 80.96%.

What about the “YFP fluorescence quenching using TC-6683 (percent quench)” value (100 uM TC-6683) of the same molecule?
The value was −16.88%.

And the “YFP fluorescence quenching (percent quench)” value (100 uM ach (acetylcholine))?
Its value is −9.29%.

And the “YFP fluorescence quenching (percent quench)” value (1 mM ach (acetylcholine))?
The value was 0.57%.

What about the “YFP fluorescence quenching (percent quench)” value (3 mM ach (acetylcholine)) of the same molecule?
The value was 35.37%.

What about the “YFP fluorescence quenching using Facinicline, 30 nM fac” value (ligand Facinicline 30 nM) of the same molecule?
Its value is 1.24.

And the “YFP fluorescence quenching using Facinicline, 300 nM fac” value (ligand Facinicline 300 nM)?
The value was 46.92.

What about the “YFP fluorescence quenching using Facinicline, 10 uM fac” value (ligand Facinicline 10 uM) of the same molecule?
Its value is 79.06.

What about the “YFP fluorescence quenching using Facinicline, 30 uM fac” value (ligand Facinicline 30 uM) of the same molecule?
The value was 81.06.

And the “YFP fluorescence quenching using TC-6987, 1 uM tc6987” value (ligand TC-6987 1 uM)?
The value was −0.14.

What about the “YFP fluorescence quenching using TC-6987, 3 uM tc6987” value (ligand TC-6987 3 uM) of the same molecule?
The value was −8.32.

And the “YFP fluorescence quenching using TC-6987, 5 uM tc6987” value (ligand TC-6987 5 uM)?
Its value is −2.13.

And the “YFP fluorescence quenching using TC-6987, 10 uM tc6987” value (ligand TC-6987 10 uM)?
Its value is 0.13.

And the “YFP fluorescence quenching using TC-6987, 30 uM tc6987” value (ligand TC-6987 30 uM)?
Its value is −6.86.

And the “YFP fluorescence quenching using TC-6987, 50 uM tc6987” value (ligand TC-6987 50 uM)?
The value was −9.5.

What about the “YFP fluorescence quenching using TC-6987, 100 uM tc6987” value (ligand TC-6987 100 uM) of the same molecule?
The value was −10.98.

What about the “YFP fluorescence quenching using TC-6987, 300 uM tc6987” value (ligand TC-6987 300 uM) of the same molecule?
Its value is −12.16.

What about the “YFP fluorescence quenching using TC-6987, 500 uM tc6987” value (ligand TC-6987 500 uM) of the same molecule?
Its value is −2.41.

What about the “YFP fluorescence quenching using Varenicline, 3 nM var” value (first column) of the same molecule?
Its value is 0.398.

And the “YFP fluorescence quenching using Varenicline, 3 nM var” value (second column)?
The value was 3.947.

And the “YFP fluorescence quenching using Varenicline, 30 nM var” value (first column)?
The value was 5.31.

And the “YFP fluorescence quenching using Varenicline, 30 nM var” value (second column)?
Its value is 7.666.

And the “YFP fluorescence quenching using Varenicline, 300 nM var” value (first column)?
The value was 4.327.

And the “YFP fluorescence quenching using Varenicline, 300 nM var” value (second column)?
The value was 3.275.

And the “YFP fluorescence quenching using Varenicline, 500 nM var” value (first column)?
Its value is 1.835.

What about the “YFP fluorescence quenching using Varenicline, 500 nM var” value (second column) of the same molecule?
Its value is 4.863.

What about the “YFP fluorescence quenching using Varenicline, 1 uM var” value (first column) of the same molecule?
Its value is 9.471.

What about the “YFP fluorescence quenching using Varenicline, 1 uM var” value (second column) of the same molecule?
Its value is 7.505.
